Source: patent US20200277405A1, “COMPOSITION FOR ANTIBODY-DRUG CONJUGATE DIRECTED AGAINST TUMOR-CELL ASSOCIATED POLYSIALIC ACID” (Cornell University, priority 2019, published 2020)
“Also recorded” adds a separate entry of the source.

Experiments:
NCAM = NCAM (Homo sapiens, UniProt P13591); settings: Target NCAM; literature; cited from earlier work
[1] = tested on: SW2 (polySia positive externally) cells; assay: Internalization of scFv735, SW2; assay type: cell-based, human
Text: (§1) FIG. 15 depicts cellular internalization of a polySia-specific single-chain Fv (scFv735) constructed by genetically fusing together the DNA encoding the variable heavy (VH) and variable light (VL) genes derived from mo735 with a flexible GlySer linker.
(§2) A polySia-specific single-chain […] (scFV735) was constructed by genetically fusing together the DNA encoding the variable heavy (VH) and variable light (VL) genes derived from mo735 with a flexible GlySer linker. Alexa Fluor 488 labeled scFv735 was incubated with SW2 (polySia positive externally) and MCF7 (polySia negative externally) cells for 2 hours at different concentrations ranging from 0-1,000 nM at either 4° C. or 37° C. (internalization). After incubation, the cells were washed and extracellular fluorescence was quenched with 0.2% Trypan Blue. Intracellular Fluoresence (geometric mean fluorescence intensity, MFI) indicative of internalized scFv735 was measured by flow cytometery.

[2] = tested on: MCF7 (polySia negative externally) cells; assay: Internalization of scFv735, MCF7; assay type: cell-based, human; settings: MCF7, 2 hours, 0-1,000 nM
Text: as §1, §2

[3] = Nagae et al.; cited from earlier work
[4] = target: chicken brain-derived polysialylated neural cell adhesion molecule (NCAM) (chicken) (UniProt P13590); assay: ELISA, chicken brain NCAM coated on the plate, ch735 titrated, anti-human IgG secondary, Abs370
[5] = target: chicken brain-derived polysialylated neural cell adhesion molecule (NCAM) (chicken) (UniProt P13590); assay: ELISA, NCAM coated on the plate, ch735 titrated (x axis 'ch735 [ng/mL]'), HRP secondary, Abs450
[6] = target: chicken brain-derived polysialylated neural cell adhesion molecule (NCAM) (chicken) (UniProt P13590); assay: SPR (Biacore 3000), antibody captured on Protein A chip, NCAM 0.25-250 nM in solution, equilibrium fit with Hill slope
[7] = target: chicken brain-derived polysialylated neural cell adhesion molecule (NCAM) (chicken) (UniProt P13590); assay: ELISA, chicken brain NCAM coated on the plate, mo735 titrated, anti-mouse IgG secondary, Abs370

B1: Lorvotuzumab DM1: CD56-targeting antibody-drug conjugate, literature (conjugate, chains of the INN, looked up)
VH: QVQLVESGGGVVQPGRSLRLSCAASGFTFSSFGMHWVRQAPGKGLEWVAYISSGSFTIYYADSVKGRFTISRDNSKNTLYLQMNSLRAEDTAVYYCARMRKGYAMDYWGQGTLVTVSS
VL: DVVMTQSPLSLPVTLGQPASISCRSSQIIIHSDGNTYLEWFQQRPGQSPRRLIYKVSNRFSGVPDRFSGSGSGTDFTLKISRVEAEDVGVYYCFQGSHVPHTFGQGTKVEIK
modifications: DM1 mertansine payload
notes: CD56-targeting antibody-drug conjugate, literature
For B1, which EC50 (NCAM) is on record?
Its EC50 is 0.2 to 5 nM.

B2: scFv735: polySia-specific single-chain Fv fusing VH and VL of mo735 with a flexible GlySer linker (protein)
scFv: DVVMTQTPLSLPVSLGDQASISCRSSQSLVHSNGNTYLYWYLQKPGQSPKPLIYRVSNRFSGVPDRFSGSGSGTDFTLKISRVEAEDLGVYFCFQGTHVPYTFGGGTRLEIKGGGGSGGGGSGGGGSQIQLQQSGPELVRPGASVKISCKASGYTFTDYYIHWVKQRPGEGLEWIGWIYPGSGNTKYNEKFKGKATLTVDTSSSTAYMQLSSLTSEDSAVYFCARGGKFAMDYWGQGTSVTVSS
With B2 as the molecule, how does the “internalization (intracellular fluorescence)” value (from here on “internalization”) ([1]; SW2, 2 hours, 0-1,000 nM, 37° C.) read?
Its value is “observed to internalize; also recorded: increase with increasing concentration”.

What about the “internalization” value ([1]; temperature reduced to 4° C.) of the same molecule?
Its value is “blocked”.

What about the “internalization” value [2] of the same molecule?
The value was “not”.

What about the “degree of polymerization (DP) of shorter sialic acids bound” value [3] of the same molecule?
The value was roughly 3.

B3: chimeric human IgG1 mAb ch735 (antibody, V domains shown)
VH: QIQLQQSGPELVRPGASVKISCKASGYTFTDYYIHWVKQRPGEGLEWIGWIYPGSGNTKYNEKFKGKATLTVDTSSSTAYMQLSSLTSEDSAVYFCARGGKFAMDYWGQGTSVTVSS
VL: DVVMTQTPLSLPVSLGDQASISCRSSQSLVHSNGNTYLYWYLQKPGQSPKPLIYRVSNRFSGVPDRFSGSGSGTDFTLKISRVEAEDLGVYFCFQGTHVPYTFGGGTRLEIK
Which results are given for B3?
EC50 (read off the curve) [4]: 10 ng/mL; EC50 (read off the curve) [5]: 10 ng/mL; Kd [6]: 4.79 nM

B4: mouse IgG2a mAb 735 (mo735) (antibody, V domains shown)
VH: B3 VH
VL: B3 VL
Which EC50 (read off the curve) [7] does the source give for B4 here?
Its EC50 (read off the curve) is 10 ng/mL.

And the Kd [6]?
The Kd was 10.2 nM.
